Test results published in patent US20240018268A1.

Molecular target: binding reagent of the similar bridge assay for the anti-CD19 (SJ25C1) CAR
Assay: similar bridge assay for the anti-CD19 (SJ25C1) CAR

Sequence of binding reagent of the similar bridge assay for the anti-CD19 (SJ25C1) CAR (scFv, as listed by the source limits assumed): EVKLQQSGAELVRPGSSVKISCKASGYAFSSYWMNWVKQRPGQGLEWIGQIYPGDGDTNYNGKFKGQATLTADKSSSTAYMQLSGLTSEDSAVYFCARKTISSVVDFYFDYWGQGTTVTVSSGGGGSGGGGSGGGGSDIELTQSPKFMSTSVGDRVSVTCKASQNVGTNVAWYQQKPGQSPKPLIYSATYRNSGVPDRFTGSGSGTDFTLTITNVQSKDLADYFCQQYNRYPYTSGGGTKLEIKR

fold signal over plasma background: > 5 fold
sensitivity of the bridge assay: < 100 ng/mL
B1: anti-idiotype antibody clone A-1 (anti-ID A-1) (antibody, mouse IgG1, kappa, V domains shown)
VH: QVQLQQPGSELVRPGGSVKLSCKASDYTFTSYWMHWVRQRPGQGLEWIGNIYPGSGGTNYDEKFKRKATLTVDTSSSTAYMQLRSLTSEDSAVYYCTREVTTVAYYYSMDYWGQGTSVTVSS
VL: DIQMTQTTSSLSASLGDRVTISCRASQDISNYLNWYQQKPDGTVKLLIYYTSRLHSGVPSRFSGSGSGTDYSLTISNLEQEDIATYFCQQGKTVPFTFGSGTKLEIKR
